Values of other authors in publication PMC10612106.

Biological target: MORC3 ATPase domain (Homo sapiens) (UniProt Q14149)

In the case of MORC3 CW (from UniProt Q14149), the Kd is listed as 9 µM.
